Consider seven molecules from patent US20180251563A1 (SUBDOMAIN, published 2018).

Assay [1] addresses human PD-L1 (human, UniProt Q9NZQ7 19-238, limits assumed). As to the kind of experiment: ELISA, FLAG-tagged pb04 on immobilised Human PDL1-Fc. As to the method: (§1) FIG. 16A establishes that a soluble DBDpp selected for binding to human PD-L1 (pb04 in this nonlimiting embodiment), can also bind PD-L1 of cynomolgus (Macaca fascicularis), as assessed by ELISA. Human PD-L1 or cynomolgus PD-L1 was immobilized in separate wells of an ELISA plate. Soluble DBDpp (FLAG tagged) directed against PD-L1 was incubated in the respective plates to assess the degree of binding with PD-L1 from each species. As shown, pb04 DBDpp binds to both human and cynomolgus PD-L1.
For orientation: In an ELISA, binding on a coated surface is turned into a signal by an enzyme label.

For assay [2], the target named is T1, cynomolgus PD-L1 (cynomolgus (Macaca fascicularis), UniProt G7PSE7 19-238).
T1 construct: also called PD-L1 of cynomolgus (Macaca fascicularis)
T1 sequence (G7PSE7 entry or part of it): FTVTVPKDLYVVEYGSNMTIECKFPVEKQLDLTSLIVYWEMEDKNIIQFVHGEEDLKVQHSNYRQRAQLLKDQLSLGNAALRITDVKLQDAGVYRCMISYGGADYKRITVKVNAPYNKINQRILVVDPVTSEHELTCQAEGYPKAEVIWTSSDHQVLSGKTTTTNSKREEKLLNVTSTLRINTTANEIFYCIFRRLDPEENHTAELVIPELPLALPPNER
As to the kind of experiment: ELISA, FLAG-tagged pb04 on immobilised Cynomolgus PDL1-Fc. The procedure: as §1

Assay [3] concerns the target T2, PD-L1-Fc (UniProt Q9NZQ7 19-238).
T2 construct: purified recombinant target-Fc protein; also called FC-PD-L1; not shown: Fc
The assay can be described thus: ELISA on PD-L1-Fc, in vitro translated DBDpp-6xHIS heated 2 minutes at 25-100 C and serially diluted, detection with anti-6xHIS-HRP. As to the method:
DBDpp-6×HIS fusions (pb04 and pb06) and scFv-6×HIS fusions were expressed through in vitro transcription and translation reactions (NEB, PureExpress). Samples were diluted in ELISA blocking buffer (Thermo Fisher) 30 fold. Individual samples were subsequently incubated at either 25° C., 40° C., 55° C., 70° C. or 100° C. for 2 minutes and then rapidly returned to room temperature. The temperature increase, followed by rapid cooling can cause denaturation of the protein or other breakdown of the three-dimensional structure of proteins that reduce target interaction and/or binding. The ability of proteins to bind with a ligand, such as a target tumor antigen, after being exposed to denaturing conditions indicates either enhanced stability during exposure to elevated temperature or an ability to re-fold and maintain function after exposure. […]
The heat-exposed samples were serially diluted in ELISA buffer and measured for binding to PD-L1-Fc in ELISA. Bound proteins were detected with HRP-conjugated rabbit anti-6×HIS polyclonal antibody (Abcam). […] Since this particular scFv is not configured to bind PD-L1, this function as a negative control, and as expected, no binding is detected for any of the DR5 scFv, regardless of the temperatures they were exposed to. […]

In assay [4] the target is T3, TIM3-Fc (UniProt Q8TDQ0 22-200).
T3 construct: purified recombinant target-Fc protein; not shown: Fc
As to the kind of experiment: phage ELISA, target-Fc against non-specific control. The procedure: (§2) Selections were also performed using F1, F2, F3, C1 & C2 trinucleotide phosphoramidite libraries. In most cases, libraries were pooled prior to use in selection. By combining equal volumes of the individual libraries, Pool F (libraries F1, F2 and F3) and Pool C (libraries C1 and C2) were generated. These libraries were used in selections for DBDpp binders to 4-1BB/CD137 as well as a larger panel of purified recombinant “target”-Fc proteins, including CD47, CTLA4, DR5, KIR, LAG3, OX40, PD1, PD-L1 and TIM3. (Many of these targets are considered immuno-regulatory factors (Pardoll et al., Nat. Rev. Cancer 12:252-264 (2012)). After incubation of the target with the pools of DBDpp phage libraries, bound phage-target complexes were captured and separated from unbound phage with protein A beads (target proteins were Fc fusions). After three rounds of selection, rescued phage clones were screened by ELISA for binding to the selected target.
(§3) For each target, approximately 90 DBDpp phage clones were screened by ELISA for binding to the target protein and as well as a non-specific control (e.g., IgG1-Fc). […] In some instances, for the ELISA screening plate in which the majority of DBDpp clones were positive, the entire plate was sequenced.

Assay [5] deals with T2, PD-L1-Fc. The assay can be described thus: ELISA, purified FLAG-tagged protein on PD-L1-Fc coated wells.
Assay [6] addresses T4, recombinant, biotinylated, Human 4-1BB/TNFRSF9/CD137-Fc (human, UniProt Q07011 24-186, biotinylated (F2NNK selection)).
T4 construct: also called 4-1BB/CD137; not shown: Fc
As to the kind of experiment: phage ELISA, target-Fc against non-specific control (IgG Fc). The source says: The F2NNK DBD library was used in five rounds of selection against recombinant, biotinylated, Human 4-1BB/TNFRSF9/CD137-Fc.

The target in assay [7] is T5, CTLA4-Fc (UniProt P16410 36-161, limits assumed).
T5 construct: purified recombinant target-Fc protein; not shown: Fc
T5 sequence (P16410 36-161 limits assumed): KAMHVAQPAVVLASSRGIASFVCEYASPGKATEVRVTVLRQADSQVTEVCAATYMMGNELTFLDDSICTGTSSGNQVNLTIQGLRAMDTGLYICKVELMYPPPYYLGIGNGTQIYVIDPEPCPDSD
The assay can be described thus: phage ELISA, target-Fc against non-specific control. The procedure: as §2, §3

Assay [8] deals with T6, Fc-fusion protein comprising the extracellular domain of CD123 fused to human IgG1 Fc (human, UniProt P26951 19-305).
T6 construct: also called Fc-CD123; not shown: human IgG1 Fc
T6 sequence: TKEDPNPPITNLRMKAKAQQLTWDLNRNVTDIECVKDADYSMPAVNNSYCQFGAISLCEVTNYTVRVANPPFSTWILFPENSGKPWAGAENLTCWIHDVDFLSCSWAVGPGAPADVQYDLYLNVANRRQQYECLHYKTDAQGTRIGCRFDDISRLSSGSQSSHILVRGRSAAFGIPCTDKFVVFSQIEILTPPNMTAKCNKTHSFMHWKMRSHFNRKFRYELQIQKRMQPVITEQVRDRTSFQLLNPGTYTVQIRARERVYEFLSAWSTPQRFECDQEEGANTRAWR
As to the kind of experiment: flow cytometry, transiently transfected 293T cells incubated with CD123-Fc, detection with PE anti-human IgG; CAR expression by anti-FLAG. The procedure:
293T cells were transiently transfected with pcDNA3 expression vectors encoding DBDpp containing CARs using (see, e.g., FIG. 5B) Lipofectamine 3000 (Life Technologies). After 24 hours, cells were collected using CellStripper™. Cells were assessed for CAR expression using a fluorescent-labeled anti-FLAG antibody. DBDpp containing CARs binding to CD123 was measured by incubating cells with a Fc-fusion protein comprising the extracellular domain of CD123 fused to human IgG1 Fc in cell culture media at 37° for 30 minutes, washing, and then detection with a PE anti-human IgG antibody. Both CD123 binding and CAR expression (FLAG Tag) were assayed by flow cytometry. Data are shown in FIG. 17, and each data point indicates the average FLAG expression and CD123-binding for each of the DBDpp-CARs from multiple experiments.
(In general: A flow cytometer gives signals particle by particle.)

The EC50 is the concentration giving half of the maximal effect. Higher therefore signals a need for much substance.

T2 sequence (Q9NZQ7 19-238 limits assumed): as the sequence (G7PSE7 entry or part of it) above, with T33A, S34A, N62S, Q68R, R82Q, L173F, A185T, I192T, L215H counted along it
Chain of human PD-L1 (Q9NZQ7 19-238 limits assumed): as the sequence (G7PSE7 entry or part of it) above, with T33A, S34A, N62S, Q68R, R82Q, L173F, A185T, I192T, L215H counted along it
T4 sequence (Q07011 24-186 limits assumed): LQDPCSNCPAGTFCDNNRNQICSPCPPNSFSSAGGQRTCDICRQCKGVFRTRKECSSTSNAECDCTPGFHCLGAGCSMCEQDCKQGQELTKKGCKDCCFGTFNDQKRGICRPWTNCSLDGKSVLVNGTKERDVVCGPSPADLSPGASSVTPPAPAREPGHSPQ

B1: FLAG-pb04 (designed binder)
chain: MGSWYEFTVRLEAIHERLKALGGSEAELAAFEKEIAAFESELQAYKGKGNPEVEILRDDAAFIRRFLQAYRHN
notes: expressed and purified from E. coli; also called N-terminal FLAG tag fusion of pb04; soluble DBDpp (FLAG tagged) directed against PD-L1; not shown: N-terminal FLAG tag
As for B1, the EC50 in assay [1] amounted to 31.4 nM; in assay [2] it was 42.1 nM.

B2: pb06 DBDpp-6xHIS fusion (designed binder)
chain: MGSWYEFDDRLNAIHDRLQALGGSEAELAAFEKEIAAFESELQAYKGKGNPEVEDLRDDAAFIRRFLQAYRHN
notes: made by in vitro transcription and translation; not shown: 6xHIS tag
Regarding B2, the binding result in assay [3] is given as “binds”.

B3: SEQ ID NO 45 (designed binder)
chain: MGSWVVFKVDLATIKYILEALGGSEAELAEFEGEIAGFEYSLQFYKGKGNPEVEALRKEAAAIRDELQAYRHN
For B3, the “ELISA ratio (target to background)” value in assay [4] is 5.79 ratio.

B4: FLAG-α3D (other)
chain: MGSWAEFKQRLAAIKTRLQALGGSEAELAAFEKEIAAFESELQAYKGKGNPEVEALRKEAAAIRDELQAYRHN
notes: expressed and purified from E. coli; also called N-terminal FLAG tag fusion of a3D; alpha3D; not shown: N-terminal FLAG tag
Turning to B4, the binding result in assay [5] is “no binding (tested: about 1000 nM)”.

B5: bb10 (designed binder)
chain: MGSWAEFKQRLAAIKTRLEALGGSEAELAAFLGEIWAFEMELAAYKGKGNPEVEALGREAAAIRMELQAYRHN
notes: F2NNK library clone
Turning to B5, in assay [6], the “ELISA ratio (target to background)” value is 5.27 ratio.

B6: SEQ ID NO 25 (designed binder)
chain: MGSWHEFHDRLQAIHERLYALGGSEAELAAFEKEIAAFESELQAYKGKGNPEVESLRIAAAHIRQVLQAYRHN
On to B6, for which the “ELISA ratio (target to background)” value in assay [7] was determined as 2.95 ratio.

B7: cg06 DBDpp-CAR (other)
chain: MGSWDEFGRRLYAIEWRLYALGGSEAELAAFEKEIAAFESELQAYKGKGNPEVEKLREIAAVIRSNLQAYRHN
notes: expressed on Jurkat NFAT reporter cells; not shown: rest of the CAR (FLAG tag, linker, transmembrane and intracellular domains) not specified
With B7, the binding result in assay [8] was “binds”.
